Assay results from PMC10397247.

Columns and labels:
APC9096-AA = target: T1, APC9096-AA; assay: two-hybrid library CCmax; details: mean of both orientations;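 note: natural log of median RNA to DNA barcode read ratio; higher means stronger binding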
T1 chain: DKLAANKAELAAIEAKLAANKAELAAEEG

APC1434-AA = target: T2, APC1434-AA; assay: two-hybrid library CCmax; details: mean of both orientations;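 note: natural log of median RNA to DNA barcode read ratio; higher means stronger binding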
T2 chain: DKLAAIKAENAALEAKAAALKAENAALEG

4H2447-AA = target: T3, 4H2447-AA; assay: two-hybrid library CCmax; details: mean of both orientations;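 note: natural log of median RNA to DNA barcode read ratio; higher means stronger binding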
T3 chain: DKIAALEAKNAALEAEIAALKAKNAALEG

4H807-AA = target: T4, 4H807-AA; assay: two-hybrid library CCmax; details: mean of both orientations;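 note: natural log of median RNA to DNA barcode read ratio; higher means stronger binding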
T4 chain: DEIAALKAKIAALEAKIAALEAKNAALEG

APC2405-AA = target: T5, APC2405-AA; assay: two-hybrid library CCmax; details: mean of both orientations;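 note: natural log of median RNA to DNA barcode read ratio; higher means stronger binding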
T5 chain: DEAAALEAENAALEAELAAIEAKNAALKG

4H3330-AA = target: T6, 4H3330-AA; assay: two-hybrid library CCmax; details: mean of both orientations;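 note: natural log of median RNA to DNA barcode read ratio; higher means stronger binding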
T6 chain: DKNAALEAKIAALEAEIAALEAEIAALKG

APC2237-AA = target: T7, APC2237-AA; assay: two-hybrid library CCmax; details: mean of both orientations
T7 chain: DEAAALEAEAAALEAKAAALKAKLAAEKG

APC4011-AA = target: T8, APC4011-AA; assay: two-hybrid library CCmax; details: mean of both orientations
T8 chain: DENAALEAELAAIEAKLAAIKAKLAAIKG

APC1015-AA = target: T9, APC1015-AA; assay: two-hybrid library CCmax; details: mean of both orientations
T9 chain: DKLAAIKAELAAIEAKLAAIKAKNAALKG

APC3645-AA = target: T10, APC3645-AA; assay: two-hybrid library CCmax; details: mean of both orientations
T10 chain: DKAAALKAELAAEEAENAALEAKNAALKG

APC9319-AA = target: T11, APC9319-AA; assay: two-hybrid library CCmax; details: mean of both orientations
T11 chain: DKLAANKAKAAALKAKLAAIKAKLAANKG

APC6108-AA = target: T12, APC6108-AA; assay: two-hybrid library CCmax; details: mean of both orientations
T12 chain: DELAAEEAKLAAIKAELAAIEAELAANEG

APC7099-AA = target: T13, APC7099-AA; assay: two-hybrid library CCmax; details: mean of both orientations
T13 chain: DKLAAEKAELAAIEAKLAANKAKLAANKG

APC4264-AA = target: T14, APC4264-AA; assay: two-hybrid library CCmax; details: mean of both orientations
T14 chain: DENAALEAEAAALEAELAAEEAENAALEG

4H733-AA = target: T15, 4H733-AA; assay: two-hybrid library CCmax; details: mean of both orientations
T15 chain: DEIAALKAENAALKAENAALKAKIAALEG

4H2290-AA = target: T16, 4H2290-AA; assay: two-hybrid library CCmax
T16 chain: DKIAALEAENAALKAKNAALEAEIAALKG

APC8191-AA = target: T17, APC8191-AA; assay: two-hybrid library CCmax; details: mean of both orientations
T17 chain: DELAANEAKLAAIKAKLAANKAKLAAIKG

APC4436-AA = target: T18, APC4436-AA; assay: two-hybrid library CCmax; details: mean of both orientations
T18 chain: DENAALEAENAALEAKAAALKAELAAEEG

APC232-AA = target: T19, APC232-AA; assay: two-hybrid library CCmax; details: mean of both orientations
T19 chain: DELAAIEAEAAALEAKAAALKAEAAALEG

APC8910-AA = target: T20, APC8910-AA; assay: two-hybrid library CCmax; details: mean of both orientations
T20 chain: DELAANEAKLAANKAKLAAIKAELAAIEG

4H716-AA = target: T21, 4H716-AA; assay: two-hybrid library CCmax; details: mean of both orientations
T21 chain: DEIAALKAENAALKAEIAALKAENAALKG

APC5383-AA = target: T22, APC5383-AA; assay: two-hybrid library CCmax; details: mean of both orientations
T22 chain: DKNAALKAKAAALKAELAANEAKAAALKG

4H2458-AA = target: T23, 4H2458-AA; assay: two-hybrid library CCmax; details: mean of both orientations
T23 chain: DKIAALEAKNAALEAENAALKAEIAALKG

P5bH1 = target: T24, P5bH1; assay: two-hybrid library CCNG1
T24 chain: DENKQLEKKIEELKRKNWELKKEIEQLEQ

P8bH1 = target: T25, P8bH1; assay: two-hybrid library CCNG1
T25 chain: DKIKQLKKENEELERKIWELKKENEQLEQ

P2bH1 = target: T26, P2bH1; assay: two-hybrid library CCNG1
T26 chain: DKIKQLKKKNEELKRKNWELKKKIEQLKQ

P1bH1 = target: T27, P1bH1; assay: two-hybrid library CCNG1
T27 chain: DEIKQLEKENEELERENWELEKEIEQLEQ

P7bH1 = target: T28, P7bH1; assay: two-hybrid library CCNG1
T28 chain: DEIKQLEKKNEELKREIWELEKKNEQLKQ

P3bH1 = target: T29, P3bH1; assay: two-hybrid library CCNG1
T29 chain: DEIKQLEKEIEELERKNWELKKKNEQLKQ

P9bH1 = target: T30, P9bH1; assay: two-hybrid library CCNG1
T30 chain: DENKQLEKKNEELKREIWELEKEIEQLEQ

P6bH1 = target: T31, P6bH1; assay: two-hybrid library CCNG1
T31 chain: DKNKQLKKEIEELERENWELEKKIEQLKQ

P4bH1 = target: T32, P4bH1; assay: two-hybrid library CCNG1
T32 chain: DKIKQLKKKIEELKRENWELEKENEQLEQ

4H932-bA = target: T33, 4H932-bA; assay: two-hybrid library CCNG1
T33 chain: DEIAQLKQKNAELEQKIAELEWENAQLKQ

4H3907-bN = target: T34, 4H3907-bN; assay: two-hybrid library CCNG1
T34 chain: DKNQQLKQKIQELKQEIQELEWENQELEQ

4H4038-bN = target: T35, 4H4038-bN; assay: two-hybrid library CCNG1
T35 chain: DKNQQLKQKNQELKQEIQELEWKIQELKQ

4H2586-bA = target: T36, 4H2586-bA; assay: two-hybrid library CCNG1
T36 chain: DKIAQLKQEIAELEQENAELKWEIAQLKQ

4H1406-bN = target: T37, 4H1406-bN; assay: two-hybrid library CCNG1
T37 chain: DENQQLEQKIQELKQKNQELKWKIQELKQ

4H3592-bN = target: T38, 4H3592-bN; assay: two-hybrid library CCNG1
T38 chain: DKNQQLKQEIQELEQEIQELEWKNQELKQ

4H477-bN = target: T39, 4H477-bN; assay: two-hybrid library CCNG1
T39 chain: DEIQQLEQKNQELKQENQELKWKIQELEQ

4H3601-bN = target: T40, 4H3601-bN; assay: two-hybrid library CCNG1
T40 chain: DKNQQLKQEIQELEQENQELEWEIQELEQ

Binder DKIAALEAENAALKAKNAALEAEIAALKG [4H2290-AA] has an interaction score (APC9096-AA) of -1.24, an interaction score (APC1434-AA) of -1.4 and an interaction score (4H2447-AA) of -1.32. For the same binder, the interaction score (4H807-AA) was -1.62, the interaction score (APC2405-AA) was -1.42 and the interaction score (4H3330-AA) was -1.24. For the same binder, the interaction score (APC2237-AA) was -1.58, the interaction score (APC4011-AA) was -1.59 and the interaction score (APC1015-AA) was -1.41. It also gave an interaction score (APC3645-AA) of -1.44, an interaction score (APC9319-AA) of -1.68 and an interaction score (APC6108-AA) of -1.54. For the same binder, the interaction score (APC7099-AA) was -1.57, the interaction score (APC4264-AA) was -1.33 and the interaction score (4H733-AA) was -1.79. For the same binder, the interaction score (4H2290-AA) was 2, the interaction score (APC8191-AA) was -1.64 and the interaction score (APC4436-AA) was -1.53. The interaction score (APC232-AA) was -1.33, the interaction score (APC8910-AA) was -1.59 and the interaction score (4H716-AA) was -1.57. It also gave an interaction score (APC5383-AA) of -1.86 and an interaction score (4H2458-AA) of -1.34.

Binder DEIKQLEKENEELERENWELEKEIEQLEQ [P1bH1] has an interaction score (P5bH1) of -1.15, an interaction score (P8bH1) of -0.757 and an interaction score (P2bH1) of 1.17. It also gave an interaction score (P1bH1) of -0.717, an interaction score (P7bH1) of -0.809 and an interaction score (P3bH1) of -1.08. The interaction score (P9bH1) was -0.87, the interaction score (P6bH1) was -1.2 and the interaction score (P4bH1) was -1.38.

In the case of DENQQLEQKIQELKQKNQELKWKIQELKQ [4H1406-bN], the interaction score (4H932-bA) is reported as -1.96, the interaction score (4H3907-bN) is reported as 0.347 and the interaction score (4H4038-bN) is reported as -1.69. It also gave an interaction score (4H2586-bA) of 0.875, an interaction score (4H1406-bN) of -0.553 and an interaction score (4H3592-bN) of 0.142. It also gave an interaction score (4H477-bN) of -2.09 and an interaction score (4H3601-bN) of 1.53.
